From US20020103111A1, “Inhibitors of MAdCAM-1-mediated interactions and methods of use therefor” (Millennium Pharmaceuticals, Inc., priority 1996, published 2002)
pIC50: −log10 of the molar value. Square brackets hold non-standard residues; d marks the D form. Ends that are not written are not given here. NMeL = CN[C@@H](CC(C)C)C(=O)O

These substances were tested against human α4β7 integrin (human) (UniProt P13612) (assay: RPMI 8866 adhesion to chimera on Protein A; neat; after control MAb 2G7).

| Substance | bound cells (raw fluorescence) |
| --- | --- |
| human MAdCAM-1-IgG chimera (huMAdCAM-1-Ig, construct HuMAdIg21) (from UniProt P01857 1-330) (Fc fusion) | 196000 |

The substances below were run against human α4β7 integrin (human) (UniProt P13612) (assay: inhibition of HUT 78 cell adhesion to murine MAdCAM-1/mCk at 100 µM).

| Substance | % Adhesion Inhibition |
| --- | --- |
| Pba-Asp-Thr (peptide) | 100% |
| Pba-Asp-Thr-Ser-Leu (peptide) | 100% |

The substances below were run against human α4β7 integrin (human) (UniProt P13612) (assay: inhibition of HUT 78 cell adhesion to murine MAdCAM-1/mCk at 500 µM).

| Substance | % Adhesion Inhibition |
| --- | --- |
| Ac-HWRGLDTSLGSV | 71% |
| Ac-Lle-Asp-Thr-Ser-Leu (peptide) | 17% |
| Ac-RGLDTSLG | 75% |
| Ac-RVHWRGLDTSLGSVQ | 88% |
| Ac-WRGLDTSLGS | 71% |
| Ac-[NMeL]LDTSL | 28% |
| H-HWRGLDTSLGSV | 80% |
| H-RVHWRGLDTSLGSVQ | 90% |
| H-WRGLDTSLGS | 76% |
| NH2-Leu-Asp-Thr-Ser-Leu (peptide) | 22% |
| [NMeL]LDTSL | 54% |

The substances below were run against human α4β7 integrin (human) (UniProt P13612) (assay: inhibition of HUT 78 cell adhesion to murine MAdCAM-1/mCk).

| Substance | pIC50 |
| --- | --- |
| 2-Anc-Leu-Asp-Thr-Ser-Leu (peptide) | 5.27 |
| Ac-MeLeu-Asp-Thr-Ser-Leu (peptide) | 3.82 |
| Ac-[NMeL]LDTSL | 2.88 |
| Cpc-Asp-Thr-Ser-Leu (peptide) | 5.05 |
| Dphb-Leu-Asp-Thr-Ser-Leu (peptide) | 4.82 |
| Pba-Asp-Thr (peptide) | 4.87 |
| Pba-Asp-Thr-Ser-Leu (peptide) | 4.88 |
| Pba-Leu-Asp-Thr-Ser-Leu (00789-1A) (peptide) | 5.40 |
| Pca-Asp-Thr (peptide) | 4.96 |
| Pca-Leu-Asp-Thr-Ser-Leu (peptide) | 5.68 |
| [NMeL]LDTSL | 3.59 |
